Experimental data taken from article PMC8546600, “Chaperone Spy Protects Outer Membrane Proteins from Folding Stress via Dynamic Complex Formation” (mBio, 2021).
Substitutions are numbered along the chain they refer to. Numbers in names are those of the source.

What was measured:
Conditions in all cases: both partners purified
[1] = molecular target: T1, His-OmpX (Escherichia coli, UniProt P0A917 24-171); test: other fluorescence titration; intrinsic tryptophan fluorescence of the OMP (0.4 uM) titrated with increasing Spy or Skp; 40 mM HEPES, 150 mM NaCl, 0.24 M urea, pH 7.5; 25 C; excitation 295 nm, emission 305-400 nm
T1 construct: Unfolded: diluted from 8 M urea to 0.24 M urea for the assay; source: E. coli, from pET28b(+)-His-ompX, purified, kept in 8 M urea; not shown: 6xHis, N-terminal, kept
T1 sequence (looked up): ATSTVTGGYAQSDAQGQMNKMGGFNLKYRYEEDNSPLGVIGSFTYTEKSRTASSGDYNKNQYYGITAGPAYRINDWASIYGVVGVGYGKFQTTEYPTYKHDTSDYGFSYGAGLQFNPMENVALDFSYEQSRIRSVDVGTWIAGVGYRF

[2] = molecular target: T2, His-LamB (Escherichia coli, UniProt P02943 26-446); test: as above
T2 construct: Unfolded: diluted from 8 M urea to 0.24 M urea for the assay; source: E. coli, from pET28b(+)-His-lamB, purified, kept in 8 M urea; not shown: 6xHis, N-terminal, kept

[3] = molecular target: T3, His-OmpC (Escherichia coli, UniProt P06996 22-367); test: as above
T3 construct: Unfolded: diluted from 8 M urea to 0.24 M urea for the assay; source: E. coli, from pET28b(+)-His-ompC, purified, kept in 8 M urea; not shown: 6xHis, N-terminal, kept
T3 sequence (looked up): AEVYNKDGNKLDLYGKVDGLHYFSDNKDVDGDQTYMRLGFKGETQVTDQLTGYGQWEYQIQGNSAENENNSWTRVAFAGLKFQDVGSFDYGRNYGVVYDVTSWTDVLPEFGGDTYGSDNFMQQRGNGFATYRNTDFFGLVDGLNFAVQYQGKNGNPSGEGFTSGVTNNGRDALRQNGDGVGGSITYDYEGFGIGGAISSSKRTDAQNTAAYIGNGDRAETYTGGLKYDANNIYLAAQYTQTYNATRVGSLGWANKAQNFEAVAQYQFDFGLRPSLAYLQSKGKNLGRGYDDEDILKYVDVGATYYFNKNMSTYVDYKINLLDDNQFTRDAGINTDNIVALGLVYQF

[4] = molecular target: T4, His-OmpA (Escherichia coli, UniProt P0A910 22-346); test: as above
T4 construct: Unfolded: diluted from 8 M urea to 0.24 M urea for the assay; source: E. coli, from pET28b(+)-His-ompA, purified, kept in 8 M urea; not shown: 6xHis, N-terminal, kept
T4 sequence (looked up): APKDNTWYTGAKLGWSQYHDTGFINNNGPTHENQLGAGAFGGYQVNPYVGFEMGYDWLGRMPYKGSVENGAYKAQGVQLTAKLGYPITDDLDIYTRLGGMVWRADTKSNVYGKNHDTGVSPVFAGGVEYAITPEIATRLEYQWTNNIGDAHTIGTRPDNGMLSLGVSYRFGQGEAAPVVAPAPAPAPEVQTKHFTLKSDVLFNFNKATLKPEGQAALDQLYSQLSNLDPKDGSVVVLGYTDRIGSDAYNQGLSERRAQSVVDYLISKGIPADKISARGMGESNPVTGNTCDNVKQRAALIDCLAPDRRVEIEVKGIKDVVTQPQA

[5] = molecular target: T5, untagged OmpX (Escherichia coli, UniProt P0A917 24-171); test: NMR spectroscopy of assembled chaperone-OMP complexes; excess urea-denatured OMP added dropwise to the chaperone, supernatant concentrated; 2D [15N,1H]-TROSY or HSQC with one partner [U-2H,15N]-labelled; 25 mM MES, 50 mM NaCl, pH 6.5; 315 K (tOmpA-Spy also at 42, 26 and 15 C)
T5 construct: outer membrane protein OmpX of Escherichia coli; [U-2H,15N]-labelled in the TROSY experiments, unlabelled in the HSQC experiment with labelled Spy; source: E. coli, from pET28b(+)-ompX, purified from the insoluble pellet in 8 M urea (ion exchange)
T5 sequence (looked up): T1 sequence (looked up)

Measured: binding result

T2 sequence (P02943 26-446): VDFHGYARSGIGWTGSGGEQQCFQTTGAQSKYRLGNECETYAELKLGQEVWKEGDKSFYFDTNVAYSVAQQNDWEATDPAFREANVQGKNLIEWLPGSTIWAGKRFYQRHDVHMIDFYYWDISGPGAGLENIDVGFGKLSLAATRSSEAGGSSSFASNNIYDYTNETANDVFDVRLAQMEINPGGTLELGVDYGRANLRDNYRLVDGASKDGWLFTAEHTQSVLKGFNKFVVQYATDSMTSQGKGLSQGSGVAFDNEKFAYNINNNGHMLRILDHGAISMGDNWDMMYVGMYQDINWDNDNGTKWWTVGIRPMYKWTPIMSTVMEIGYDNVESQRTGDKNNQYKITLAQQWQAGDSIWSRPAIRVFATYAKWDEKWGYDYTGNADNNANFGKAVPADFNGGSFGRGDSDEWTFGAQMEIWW

B1: seventeen-kilodalton protein (Skp) (natural protein, Escherichia coli, UniProt P0AEU7 21-161, looked up)
chain: ADKIAIVNMGSLFQQVAQKTGVSNTLENEFKGRASELQRMETDLQAKMKKLQSMKAGSDRTKLEKDVMAQRQTFAQKAQAFEQDRARRSNEERGKLVTRIQTAVKSVANSQDIDLVVDANAVAYNSSDVKDITADVLKQVK
notes: Skp, periplasmic chaperone of Escherichia coli; source: E. coli, from pET28b(+)-HisSUMO-skp, purified (6xHis-SUMO tag removed, cation exchange)
not listed: [5]
binds: all other assays above

B2: periplasmic chaperone Spy (natural protein, Escherichia coli, UniProt P77754 24-161, looked up)
chain: ADTTTAAPADAKPMMHHKGKFGPHQDMMFKDLNLTDAQKQQIREIMKGQRDQMKRPPLEERRAMHDIIASDTFDKVKAEAQIAKMEEQRKANMLAHMETQNKIYNILTPEQKKQFNANFEKRLTERPAAKGKMPATAE
notes: Spy, periplasmic chaperone of Escherichia coli; [U-2H,15N]-labelled in the HSQC experiment with unlabelled OmpX, unlabelled elsewhere; also called wild-type Spy; WT Spy; source: E. coli, from pET28b(+)-HisSUMO-spy, purified (6xHis-SUMO tag removed, cation exchange)
binds: all assays above

B3: Spy^Q100L (natural protein, Escherichia coli, UniProt P77754 24-161, looked up)
chain: B2 chain with Q100L
notes: Spy of Escherichia coli with Q100L; also called Q100L variant; source: E. coli, from pET28b(+)-HisSUMO-spy-Q100L, purified
binds: [5]
